These results are taken from patent US10215752.

For orientation: Kd means the free concentration of one partner at which half of the binding sites on the other are occupied at equilibrium, for simple one-to-one binding. Higher therefore signals weaker binding. A word on the koff: it is the first-order rate constant of dissociation. A high value points to fast dissociation.

In this assay the target is His-tag GafD lectin (Escherichia coli) (UniProt Q47341). Description: concentration dependent nIR fluorescence loading curves, ks against concentration, GafD on Ni-NTA SWNT/chitosan sensor.
Sequence of His-tag GafD lectin (Escherichia coli) (Q47341 23-200 limits assumed): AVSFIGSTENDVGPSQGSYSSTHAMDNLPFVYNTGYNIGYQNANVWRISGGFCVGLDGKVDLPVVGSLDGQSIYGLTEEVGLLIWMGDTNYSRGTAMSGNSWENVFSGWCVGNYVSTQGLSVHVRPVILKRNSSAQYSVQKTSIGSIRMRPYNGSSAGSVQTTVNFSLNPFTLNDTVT

The substance “murine produced anti His-tag antibody (Sigma H1029)” gave a Kd of 4 µM and a koff of 0.0082 s⁻¹.
